Assay results as given in US20240251767A1 (LEVERAGEN, published 2024).
Where two headings read alike, the source gives them in different places.

B1: MS329_5 Nb-human Fc fusion (Fc fusion, not shown: a dimerising Fc or GST)
VH: EVQLQQSGPELVKPGASVKMSCKASGYTFTDYYIKWEKQSHGKSLEWIGDINPKNGETFYNQQFKGKATLTVDKSSSTAYMQLNSLTSEDSAVYYCARKEYGDYGYAVDYWGQGTSVTVSS
notes: also called LVGN-S3205; LVGN-53205
B2: M2S521_378 Nb-human Fc fusion (Fc fusion, not shown: a dimerising Fc or GST)
VH: EVQLQQSGPELVKPGASVKISCKASGYTFTDYYMKWVKQSHGKSLEWIGDINPKNGGTNYNQKFKDKATLTVDKSSSTAYMELRSLTSEDSAVYYCARLEDGYYGYAIDYWSQGTSVTVSS
notes: also called LVGN-S231378; LVGN-S521378

Key:
[1] = molecular target: T1, Spike protein of the COVID-19 Spike-ACE2 Binding Assay Kit (Raybiotech) (SARS-CoV2, UniProt P0DTC2 319-541)
[2] = molecular target: T1, Spike protein of the COVID-19 …; remark: listed apart in the source

| Binder | IC50 [1] | IC50 [2] |
| --- | --- | --- |
| B1 | 0.397 nM | 0.4 nM |
| B2 |  | 3.3 nM |
